US20050085421A1

Target: GHSR-1a
Assay: 125I-ghrelin saturation binding on GHSR-1a membranes (typical value of membrane stock)

- Bmax: 6 fmol/µg
Substance: 125I-ghrelin (peptide)
